Results taken from article doi:10.1101/2025.10.17.683039.

Tests used:
[1] = molecular target: Enoyl-CoA carboxylase/reductase (ECR) from Burkholderia ambifaria (Burkholderia ambifaria); assay: SEC; S200 column; each protein alone (1 mL) and a mixture of equal volumes (500 uL each) of the two proteins; peaks compared
[2] = molecular target: Enoyl-CoA carboxylase/reductase (ECR) from Mesorhizobium metallidurans (Mesorhizobium metallidurans); assay: crystal structure; apo ECR, space group C 1 2 1, 100 K, 1.40 Å, molecular replacement with PDB 6NA3
[3] = molecular target: Enoyl-CoA carboxylase/reductase (ECR) from Mesorhizobium metallidurans (Mesorhizobium metallidurans); assay: SEC; S200 column; each protein alone (1 mL) and a mixture of equal volumes (500 uL each) of the two proteins; peaks compared

Substance “Enoyl-CoA carboxylase/reductase (ECR) from Burkholderia ambifaria (enzyme)” has a stoichiometry N [1] of 4.

“Enoyl-CoA carboxylase/reductase (ECR) from Mesorhizobium metallidurans (enzyme)” was tested, and the stoichiometry N [2] was 2 and the stoichiometry N [3] was 2.
